From patent US20050282743A1, “Molecular interactions in cells” (Arbor Vita Corporation, priority 2001, published 2005)

T1: GST-KIAA0147 PDZ domain 3 (Homo sapiens (Human)), Q14160
T1 chain: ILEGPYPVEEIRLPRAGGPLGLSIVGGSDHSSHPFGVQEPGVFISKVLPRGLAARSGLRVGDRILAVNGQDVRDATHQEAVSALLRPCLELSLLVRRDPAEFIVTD

T2: GST-DLG2 PDZ domain 2 (Homo sapiens (Human)), Q15700
T2 chain: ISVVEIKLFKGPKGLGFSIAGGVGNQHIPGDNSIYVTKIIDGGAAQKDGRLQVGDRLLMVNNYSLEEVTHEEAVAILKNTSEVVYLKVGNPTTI

T3: GST-KIAA0147 PDZ domain 4 (Homo sapiens (Human)), Q14160
T3 chain: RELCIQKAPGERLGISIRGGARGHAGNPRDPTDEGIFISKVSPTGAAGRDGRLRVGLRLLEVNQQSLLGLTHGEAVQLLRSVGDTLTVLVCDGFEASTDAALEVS

T4: GST-MUPP1 PDZ domain 13 (Homo sapiens (Human)), O75970
T4 chain: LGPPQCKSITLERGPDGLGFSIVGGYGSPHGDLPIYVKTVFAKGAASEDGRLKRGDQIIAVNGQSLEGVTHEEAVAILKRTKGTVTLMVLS

T5: GST-KIAA0147 PDZ domain 2 (Homo sapiens (Human)), Q14160
T5 chain: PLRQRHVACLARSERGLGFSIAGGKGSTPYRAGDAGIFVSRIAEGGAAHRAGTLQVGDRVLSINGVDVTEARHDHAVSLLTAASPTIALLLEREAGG

T6: GST-DLG1 PDZ domain 2 (Homo sapiens), Q12959
T6 chain: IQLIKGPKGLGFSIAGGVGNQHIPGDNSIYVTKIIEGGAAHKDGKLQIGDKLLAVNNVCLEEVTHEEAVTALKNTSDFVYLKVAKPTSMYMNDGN

T7: GST-EZRIN Binding Protein 50 PDZ domain 1 (Homo sapiens (Human)), O14745
T7 chain: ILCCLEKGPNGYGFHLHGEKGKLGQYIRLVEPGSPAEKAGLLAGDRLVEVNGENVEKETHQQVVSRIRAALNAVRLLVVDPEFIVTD

T8: GST-MUPP1 PDZ domain 10 (Homo sapiens (Human)), O75970
T8 chain: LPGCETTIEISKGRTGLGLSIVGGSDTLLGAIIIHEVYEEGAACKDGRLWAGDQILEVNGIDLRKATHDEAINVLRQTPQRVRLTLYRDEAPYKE

T9: GST-ZO-2 PDZ domain 1 (Homo sapiens (Human)), Q9UDY2
T9 chain: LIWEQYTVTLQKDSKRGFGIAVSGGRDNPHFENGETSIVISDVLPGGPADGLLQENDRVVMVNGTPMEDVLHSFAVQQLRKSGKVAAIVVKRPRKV

T10: GST-INADL PDZ domain 8 (Homo sapiens (Human)), Q8NI35
T10 chain: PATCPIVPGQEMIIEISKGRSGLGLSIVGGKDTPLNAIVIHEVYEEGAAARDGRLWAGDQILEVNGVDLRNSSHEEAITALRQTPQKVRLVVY

T11: GST-MUPP1 PDZ domain 5 (Homo sapiens (Human)), O75970
T11 chain: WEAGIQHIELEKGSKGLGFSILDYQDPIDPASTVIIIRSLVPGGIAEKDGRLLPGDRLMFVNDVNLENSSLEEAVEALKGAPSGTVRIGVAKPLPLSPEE

T12: GST-MINT1 PDZ domain 1 (Mus musculus (Mouse)), B2RUJ5
T12 chain: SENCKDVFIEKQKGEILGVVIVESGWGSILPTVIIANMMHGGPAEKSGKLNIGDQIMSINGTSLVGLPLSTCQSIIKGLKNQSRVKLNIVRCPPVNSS

T13: GST-novel PDZ gene PDZ domain 1 (Homo sapiens (Human)), Q9H5P4
T13 chain: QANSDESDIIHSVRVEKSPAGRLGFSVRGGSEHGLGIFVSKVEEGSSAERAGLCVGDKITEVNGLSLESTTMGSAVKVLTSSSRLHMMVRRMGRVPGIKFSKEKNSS

T14: GST-X-11 beta PDZ domain 2 (Rattus norvegicus (Rat)), O35431
T14 chain: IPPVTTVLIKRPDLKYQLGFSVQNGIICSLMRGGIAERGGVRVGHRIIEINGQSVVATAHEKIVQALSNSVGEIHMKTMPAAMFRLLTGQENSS

T15: GST-ZO-1 PDZ domain 2 (Rattus norvegicus (Rat)), A0A0G2
T15 chain: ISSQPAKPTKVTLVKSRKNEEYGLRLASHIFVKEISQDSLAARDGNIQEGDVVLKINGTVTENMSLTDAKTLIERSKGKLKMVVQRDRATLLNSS


Assays:
Experiment in all cases: G' assay
[1] = target: T1, GST-KIAA0147 PDZ domain 3 (Homo sapiens …)
[2] = target: T2, GST-DLG2 PDZ domain 2 (Homo sapiens …)
[3] = target: GST-PSD95 PDZ domains 1, 2, 3 (Homo sapiens), P78352
Chain of GST-PSD95 PDZ domains 1, 2, 3 (Homo sapiens), P78352 (P78352 62-395): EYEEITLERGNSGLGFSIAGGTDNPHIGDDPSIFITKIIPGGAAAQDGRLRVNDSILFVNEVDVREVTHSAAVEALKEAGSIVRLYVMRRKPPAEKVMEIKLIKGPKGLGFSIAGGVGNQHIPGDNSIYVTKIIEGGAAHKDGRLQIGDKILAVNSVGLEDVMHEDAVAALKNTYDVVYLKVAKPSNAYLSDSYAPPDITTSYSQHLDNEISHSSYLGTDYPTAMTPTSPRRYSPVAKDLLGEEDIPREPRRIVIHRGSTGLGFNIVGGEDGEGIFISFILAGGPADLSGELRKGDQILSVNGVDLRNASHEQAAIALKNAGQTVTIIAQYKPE

[4] = target: GST-DLG1 PDZ domains 1, 2 (Homo sapiens), Q12959
[5] = target: GST-BAI-1 Associated Protein PDZ domain 4 (Homo sapiens (Human)), Q96QZ7
Chain of GST-BAI-1 Associated Protein PDZ domain 4 (Homo sapiens (Human)), Q96QZ7 (Q96QZ7 other isoform, or with tags, fused parts or gaps): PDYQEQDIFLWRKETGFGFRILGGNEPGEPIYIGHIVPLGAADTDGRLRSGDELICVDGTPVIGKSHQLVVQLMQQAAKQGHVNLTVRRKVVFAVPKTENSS

[6] = target: T3, GST-KIAA0147 PDZ domain 4 (Homo sapiens …)
[7] = target: GST-KIAA1634 PDZ domain 1 (Homo sapiens (Human)), Q5TCQ9
Chain of GST-KIAA1634 PDZ domain 1 (Homo sapiens (Human)), Q5TCQ9 (Q5TCQ9 401-502): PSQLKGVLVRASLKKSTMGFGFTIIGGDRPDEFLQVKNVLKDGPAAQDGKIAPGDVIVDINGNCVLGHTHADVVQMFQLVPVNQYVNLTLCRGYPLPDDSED

[8] = target: T4, GST-MUPP1 PDZ domain 13 (Homo sapiens …)
[9] = target: T5, GST-KIAA0147 PDZ domain 2 (Homo sapiens …)
[10] = target: T6, GST-DLG1 PDZ domain 2 (Homo sapiens), …
[11] = target: GST-DLG1 PDZ domain 1 (Homo sapiens), Q12959
[12] = target: GST-Atrophin-1 Interacting Protein PDZ domain 1 (Rattus norvegicus (Rat)), O88382
Chain of GST-Atrophin-1 Interacting Protein PDZ domain 1 (Rattus norvegicus (Rat)), O88382 (O88382 408-511): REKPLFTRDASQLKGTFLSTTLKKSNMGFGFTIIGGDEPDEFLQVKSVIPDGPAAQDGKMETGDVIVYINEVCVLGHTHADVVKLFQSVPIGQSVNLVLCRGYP

[13] = target: GST-KIAA0147 PDZ domain 1 (Homo sapiens (Human)), Q14160
Chain of GST-KIAA0147 PDZ domain 1 (Homo sapiens (Human)), Q14160 (Q14160 other isoform, or with tags, fused parts or gaps): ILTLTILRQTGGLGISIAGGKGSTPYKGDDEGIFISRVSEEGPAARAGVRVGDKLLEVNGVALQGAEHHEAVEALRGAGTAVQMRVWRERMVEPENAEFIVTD

[14] = target: GST-TAX IP2 PDZ domain 1 [GST: P08515]
Chain of GST-TAX IP2 PDZ domain 1 [GST: P08515] (P08515 whole entry, the tested form may be a part): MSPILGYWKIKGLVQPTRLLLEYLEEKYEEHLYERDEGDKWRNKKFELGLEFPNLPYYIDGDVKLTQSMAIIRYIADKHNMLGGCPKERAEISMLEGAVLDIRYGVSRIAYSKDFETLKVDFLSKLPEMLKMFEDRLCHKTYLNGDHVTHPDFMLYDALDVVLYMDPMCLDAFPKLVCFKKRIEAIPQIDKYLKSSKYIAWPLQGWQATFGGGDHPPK

[15] = target: T7, GST-EZRIN Binding Protein 50 PDZ domain …
[16] = target: T8, GST-MUPP1 PDZ domain 10 (Homo sapiens …)
[17] = target: T9, GST-ZO-2 PDZ domain 1 (Homo sapiens …)
[18] = target: T10, GST-INADL PDZ domain 8 (Homo sapiens …)
[19] = target: T11, GST-MUPP1 PDZ domain 5 (Homo sapiens …)
[20] = target: T12, GST-MINT1 PDZ domain 1 (Mus musculus …)
[21] = target: T13, GST-novel PDZ gene PDZ domain 1 (Homo …)
[22] = target: T14, GST-X-11 beta PDZ domain 2 (Rattus …)
[23] = target: T15, GST-ZO-1 PDZ domain 2 (Rattus …)
Also: key of the grades not given here.

| Binder | Classification [2] | Classification [3] | Classification [4] | Classification [5] | Classification [7] | Classification [10] | Classification [11] | Classification [12] | Classification [13] | Classification [16] | Classification [18] | Classification [20] | also measured |
| --- | --- | --- | --- | --- | --- | --- | --- | --- | --- | --- | --- | --- | --- |
| QISPGGLEPPSEKHFRETEV (modifications not checked) [TAX] | 5 A450 class | 5 A450 class | 5 A450 class | 2 A450 class | 5 A450 class | 5 A450 class | 5 A450 class | 5 A450 class | 5 A450 class | – | – | – | Classification [1]: 1 A450 class; Classification [6]: 1 A450 class; Classification [8]: 5 A450 class; Classification [9]: 5 A450 class; Classification [14]: 2 A450 class |
| AWDDSARAAGGQGLHVTAL (modifications not checked) [LPAP] | – | – | – | – | – | – | – | – | 3 A450 class | – | – | – | Classification [15]: 5 A450 class |
| VGTLLLERVIFPSVKIATLV (modifications not checked) [AdenoE4 typ9] | 5 A450 class | 5 A450 class | 5 A450 class | 5 A450 class | 5 A450 class | 5 A450 class | 4 A450 class | 5 A450 class | – | 1 A450 class | 2 A450 class | – | Classification [17]: 3 A450 class |
| KTMPAAMYRLLTAQEQPVYI (modifications not checked) [MINT-1] | – | – | – | – | – | – | – | – | – | 1 A450 class | 1 A450 class | 3 A450 class | Classification [19]: 2 A450 class |
| VPGALDYAAFSSALYGESDL (modifications not checked) [a-actinin 2] | – | – | 1 A450 class | – | – | 1 A450 class | – | – | 2 A450 class | – | – | – | Classification [1]: 3 A450 class; Classification [21]: 2 A450 class; Classification [14]: 5 A450 class |
| PIPAGGCTFSGIFPTLTSPL (modifications not checked) [KIA 1481] | – | – | – | 1 A450 class | 2 A450 class | – | – | – | 2 A450 class | – | – | – | Classification [15]: 2 A450 class; Classification [21]: 1 A450 class |
| TQGFPGPATWRRISSLESEV (modifications not checked) [NMDA Glutamate Receptor 2C (cysteine-free)] | 5 A450 class | 5 A450 class | 5 A450 class | 3 A450 class | 5 A450 class | 5 A450 class | 5 A450 class | 5 A450 class | 5 A450 class | 1 A450 class | 1 A450 class | – | Classification [1]: 1 A450 class; Classification [19]: 1 A450 class; Classification [8]: 5 A450 class; Classification [9]: 1 A450 class; Classification [14]: 4 A450 class |
| ILNSIQVMRAQMNQIQSVEV (modifications not checked) [ephrin B2] | – | – | – | – | – | – | – | – | – | – | – | 1 A450 class | Classification [22]: 1 A450 class; Classification [23]: 2 A450 class; Classification [6]: 2 A450 class; Classification [17]: 1 A450 class; Classification [15]: 1 A450 class; Classification [21]: 2 A450 class |
| PYSELNYETSHYPASPDSWV (modifications not checked) [catenin - delta 2] | 1 A450 class | 2 A450 class | 3 A450 class | – | – | 2 A450 class | 1 A450 class | – | – | – | 2 A450 class | – | Classification [6]: 1 A450 class; Classification [9]: 3 A450 class |
| ELLQFCRTPNPALKNGQYWV (modifications not checked) [CSPG4 (chondroitin sulfae proteoglycan 4, melanoma-associated)] | – | – | – | – | 5 A450 class | – | – | 1 A450 class | – | 4 A450 class | 3 A450 class | 2 A450 class | Classification [19]: 5 A450 class; Classification [22]: 2 A450 class; Classification [23]: 4 A450 class; Classification [17]: 5 A450 class |
| HDFRRAFKKILARGDRKRIV (modifications not checked) [alpha-2A Adrenergic receptor] | – | – | – | – | – | – | – | – | – | – | – | 1 A450 class | Classification [22]: 1 A450 class; Classification [23]: 4 A450 class; Classification [8]: 1 A450 class |
